Molecular target: BAX, the ligand protein coupled on the SPR chip, Q07812
Assay: SPR
Conditions: natural protein; chains chain; remark: other sources report otherwise

Sequence of BAX, the ligand protein coupled on the SPR chip, Q07812 (Q07812 whole entry): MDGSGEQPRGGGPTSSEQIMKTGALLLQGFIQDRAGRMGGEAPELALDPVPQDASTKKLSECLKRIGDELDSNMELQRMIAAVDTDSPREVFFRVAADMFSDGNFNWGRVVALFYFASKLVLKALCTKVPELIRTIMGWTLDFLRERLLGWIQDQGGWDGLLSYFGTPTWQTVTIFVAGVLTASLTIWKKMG

Kd: 11.3 µM
B1: recombinant human MANF (rhMANF) protein, P55145 25-182 (protein)
chain: LRPGDCEVCISYLGRFYQDLKDRDVTFSPATIENELIKFCREARGKENRLCYYIGATDDAATKIINEVSKPLAHHIPVEKICEKLKKKDSQICELKYDKQIDLSTVDLKKLRVKELKKILDDWGETCKGCAEKSDYIRKINELMPKYAPKAASARTDL
